From patent US20100166708

How the values were obtained:
[1] = tryptophan fluorescence, urea dissociation of peptide complexes, 5 µM peptide
[2] = tryptophan fluorescence, urea dissociation of peptide complexes, 25 µM peptide

Substance: delta-haemolysin
- midpoint of the unfolding curve [1]: The midpoints of the unfolding curves of 5 µM and 25 µM were 2.14 and 3.20M urea
- midpoint of the unfolding curve [2]: The midpoints of the unfolding curves of 5 µM and 25 µM were 2.14 and 3.20M urea
